Source: patent US20090075921A1, “Bone/joint disease sensitivity gene and use thereof” (Riken, priority 2004, published 2009)
Values belong to the molecule of their own block, whether it stands above or below them.

Assays:
ATDC5 cells = test: MTT assay of ATDC5 cell growth; assay type: cell-based, mouse; conditions: added alone, medium 1-2
Procedure: ATDC5 was inoculated to a 12-well plate at 0.4×10^5 cells/well, and cultured using the medium 1-2 described in Example 19 for 24 hours, after which asporin and bFGF were added, and MTT assay was performed over time as described below. Specifically, the medium was removed by suction, the 1 mg/ml MTT reagent (DOJINDO) dissolved in DMEM/F12 was added at 1 ml/well, and the plate was incubated in a CO2 incubator for 1 hour. The supernatant was removed by suction, a Lysis reagent (86% isopropanol, 40 mM HCl, 1% SDS) was added to the plate at 0.2 ml/well, and extraction was performed at room temperature for 5 minutes. This extract was transferred to a 96-well plate, and OD550 was measured using a plate reader.

type I collagen = biological target: T1, type I collagen (Homo sapiens, UniProt P02452+P08123); test: Binding assay of asporin and collagen (type I); conditions: 37° C., 5 hours, precipitate, Western blotting
T1 construct: purchased Nitta Gelatin Inc. 1-C
T1 sequence (P02452 162-1218 limits assumed): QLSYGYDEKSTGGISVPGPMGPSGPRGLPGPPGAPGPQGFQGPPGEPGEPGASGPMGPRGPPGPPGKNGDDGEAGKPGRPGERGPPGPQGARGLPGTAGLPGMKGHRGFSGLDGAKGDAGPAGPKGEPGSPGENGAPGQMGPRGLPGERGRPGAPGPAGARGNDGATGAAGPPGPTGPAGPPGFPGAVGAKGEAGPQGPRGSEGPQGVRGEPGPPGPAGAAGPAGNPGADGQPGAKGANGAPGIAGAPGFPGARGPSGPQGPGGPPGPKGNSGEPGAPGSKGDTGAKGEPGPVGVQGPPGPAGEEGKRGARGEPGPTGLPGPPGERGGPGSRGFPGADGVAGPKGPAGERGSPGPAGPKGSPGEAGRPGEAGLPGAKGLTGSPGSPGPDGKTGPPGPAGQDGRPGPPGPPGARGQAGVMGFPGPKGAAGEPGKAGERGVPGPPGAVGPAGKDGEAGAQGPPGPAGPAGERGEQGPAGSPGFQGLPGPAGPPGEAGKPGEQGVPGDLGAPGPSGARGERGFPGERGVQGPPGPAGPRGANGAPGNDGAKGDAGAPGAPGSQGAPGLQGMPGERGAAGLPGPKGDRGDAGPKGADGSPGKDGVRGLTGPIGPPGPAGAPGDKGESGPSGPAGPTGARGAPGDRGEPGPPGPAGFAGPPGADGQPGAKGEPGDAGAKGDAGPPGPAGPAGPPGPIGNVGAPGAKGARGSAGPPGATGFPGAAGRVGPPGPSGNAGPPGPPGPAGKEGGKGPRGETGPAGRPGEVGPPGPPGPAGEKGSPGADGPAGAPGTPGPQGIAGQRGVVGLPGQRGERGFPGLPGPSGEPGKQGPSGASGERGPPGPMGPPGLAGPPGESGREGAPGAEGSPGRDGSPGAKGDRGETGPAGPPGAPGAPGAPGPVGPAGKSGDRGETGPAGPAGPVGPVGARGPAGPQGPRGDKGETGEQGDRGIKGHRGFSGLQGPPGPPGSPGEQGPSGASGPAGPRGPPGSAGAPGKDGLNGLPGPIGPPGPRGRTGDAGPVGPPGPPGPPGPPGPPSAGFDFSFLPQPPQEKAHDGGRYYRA
T1 sequence (P08123 80-1119 limits assumed): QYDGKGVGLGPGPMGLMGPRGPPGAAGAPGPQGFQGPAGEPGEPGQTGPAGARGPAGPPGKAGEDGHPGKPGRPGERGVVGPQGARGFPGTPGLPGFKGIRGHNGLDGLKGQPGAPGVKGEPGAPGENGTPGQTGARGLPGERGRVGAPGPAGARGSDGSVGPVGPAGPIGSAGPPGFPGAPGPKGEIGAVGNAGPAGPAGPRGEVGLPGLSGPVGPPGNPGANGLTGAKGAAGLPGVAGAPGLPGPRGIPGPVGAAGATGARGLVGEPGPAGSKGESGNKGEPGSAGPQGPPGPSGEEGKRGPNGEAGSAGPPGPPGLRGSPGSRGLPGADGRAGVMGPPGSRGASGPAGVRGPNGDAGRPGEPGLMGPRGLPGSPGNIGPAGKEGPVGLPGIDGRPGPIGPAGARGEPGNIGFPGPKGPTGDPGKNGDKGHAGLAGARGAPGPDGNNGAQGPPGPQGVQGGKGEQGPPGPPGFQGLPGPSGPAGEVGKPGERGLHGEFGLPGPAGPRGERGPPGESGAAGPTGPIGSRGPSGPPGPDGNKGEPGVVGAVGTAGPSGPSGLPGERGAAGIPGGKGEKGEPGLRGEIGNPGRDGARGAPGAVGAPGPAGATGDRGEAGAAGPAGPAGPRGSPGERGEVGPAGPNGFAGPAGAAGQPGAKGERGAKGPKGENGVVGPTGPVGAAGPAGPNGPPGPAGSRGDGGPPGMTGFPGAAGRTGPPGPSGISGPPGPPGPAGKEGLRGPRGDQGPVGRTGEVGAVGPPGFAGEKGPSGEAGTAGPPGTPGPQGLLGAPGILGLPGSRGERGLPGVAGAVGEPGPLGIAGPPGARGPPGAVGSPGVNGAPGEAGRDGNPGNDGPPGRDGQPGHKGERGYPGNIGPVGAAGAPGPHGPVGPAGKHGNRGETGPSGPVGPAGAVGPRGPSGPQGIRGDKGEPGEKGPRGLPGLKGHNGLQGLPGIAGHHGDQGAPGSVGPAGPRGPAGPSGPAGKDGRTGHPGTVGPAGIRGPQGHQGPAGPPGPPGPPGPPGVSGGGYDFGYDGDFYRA
Procedure: (§1) A binding assay of asporin and collagen was performed by the method described below. As a collagen an acid-soluble type II collagen solution (KOKEN, 3 mg/ml) and an acid-soluble type I collagen solution (1-C: Nitta Gelatin Inc., 3 mg/ml) were used. A reaction mixture comprising 5 μl of an acid-soluble collagen solution (3 mg/ml), 5 μl of an S-tagged human asporin reaction mixture prepared by the method described in Example, and 90 μl of PBS, was prepared, and incubated at 37° C. for 5 hours. This reaction mixture was centrifuged (10,000 rpm, 5 minutes, 4° C.), after which the precipitate was washed with PBS three times. The washed precipitate was dissolved in 20 μl of a sample buffer (comprising 1 μl of 2-mercaptoethanol), after which SDS-PAGE was performed, and Western blotting was performed using streptavidin-HRP. As a result, S-tagged human asporin D13 and D14 bound to both type II collagen and type I collagen (FIG. 21a).

type II collagen = test: Binding assay of asporin and collagen (type II); conditions: 37° C., 5 hours, precipitate, Western blotting
Chain of type II collagen (P02458 182-1241 limits assumed): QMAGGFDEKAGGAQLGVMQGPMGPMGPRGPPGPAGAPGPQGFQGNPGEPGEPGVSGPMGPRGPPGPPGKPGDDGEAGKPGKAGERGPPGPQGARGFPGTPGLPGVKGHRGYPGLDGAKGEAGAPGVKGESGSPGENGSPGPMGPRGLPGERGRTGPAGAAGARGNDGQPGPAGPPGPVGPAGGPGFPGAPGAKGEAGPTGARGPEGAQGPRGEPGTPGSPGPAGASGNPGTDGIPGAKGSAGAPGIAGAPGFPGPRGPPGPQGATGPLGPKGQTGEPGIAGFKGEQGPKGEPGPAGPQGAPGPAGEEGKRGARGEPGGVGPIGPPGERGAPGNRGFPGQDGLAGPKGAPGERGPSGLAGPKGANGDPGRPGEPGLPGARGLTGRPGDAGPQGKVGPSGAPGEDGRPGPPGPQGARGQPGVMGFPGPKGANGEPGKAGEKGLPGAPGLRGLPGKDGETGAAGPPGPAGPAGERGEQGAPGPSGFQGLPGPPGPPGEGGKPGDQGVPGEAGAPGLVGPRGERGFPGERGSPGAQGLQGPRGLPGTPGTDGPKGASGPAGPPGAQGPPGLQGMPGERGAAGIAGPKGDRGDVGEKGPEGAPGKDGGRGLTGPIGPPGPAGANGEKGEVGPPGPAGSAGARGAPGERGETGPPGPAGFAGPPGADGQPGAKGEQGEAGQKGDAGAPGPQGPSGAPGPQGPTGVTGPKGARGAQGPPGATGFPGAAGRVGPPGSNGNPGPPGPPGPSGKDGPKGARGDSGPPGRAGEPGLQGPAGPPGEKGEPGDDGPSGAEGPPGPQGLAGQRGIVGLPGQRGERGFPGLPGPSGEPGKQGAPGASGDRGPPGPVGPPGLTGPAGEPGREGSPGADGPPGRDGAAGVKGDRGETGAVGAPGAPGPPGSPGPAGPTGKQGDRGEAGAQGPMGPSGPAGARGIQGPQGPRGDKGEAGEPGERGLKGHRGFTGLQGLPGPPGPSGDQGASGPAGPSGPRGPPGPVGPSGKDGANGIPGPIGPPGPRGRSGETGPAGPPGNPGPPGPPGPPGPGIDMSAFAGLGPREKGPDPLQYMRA
Procedure: as §1

TGF-β1 = TGF-β1 (Homo sapiens, UniProt P01137); test: Binding assay of asporin and TGF-β by pull-down assay method; conditions: S-Protein agarose precipitate, Western blotting
Chain of TGF-β1 (P01137 279-390 limits assumed, species assumed): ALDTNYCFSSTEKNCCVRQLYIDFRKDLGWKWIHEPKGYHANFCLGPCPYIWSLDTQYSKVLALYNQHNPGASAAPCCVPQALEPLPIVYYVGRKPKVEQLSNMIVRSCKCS
Procedure: With the pET29b-ASP13 and pET29b-ASP14 thus prepared as the templates, S-tagged human asporin D13 and D14 were prepared by performing a reaction in the presence of Transcend™ Biotin-Lysyl-tRNA using TNT Quick Coupled Transcription/Translation Systems (Promega). A reaction mixture comprising S-tagged human asporin D13 or D14 (10 μl) and TGF-β1 (0.1 μg) were mixed in buffer A (50 mM Tris (pH 7.5), 150 mM NaCl, 1% Triton X-100, complete protease inhibitor cocktail tablets (Roche)) at 4° C. for 1 hour, S-Protein agarose (Novagen, 12.5 μl) was added, and the mixture was further incubated at room temperature for 30 minutes. The precipitated resin was washed with buffer A five times, after which SDS-PAGE was performed under reducing conditions. S-tagged human asporin in the precipitate was detected by Western blotting using streptavidin-HRP (R&D Systems), and TGF-β1 was detected by Western blotting using biotinylated anti-TGF-β1 antibody (Genzyme). As a result of an examination of the binding of human asporin and TGF-β by the method described above, a band of TGF-β1 was detected in the precipitate comprising S-tagged human asporin D13 or D14 (FIG. 17).
Using the recombinant mouse asporin purified by the method described in Example 31, its capability of binding with TGF-β1 was examined by the method described in Example 22 (pull-down assay method); as a result, it was confirmed that TGF-β1 was detected in the precipitate of purified mouse asporin (FIG. 26).

[1] = system: ATDC5 cell lines that transiently express human asporin; test: TGF-β1-stimulated aggrecan and type II collagen gene expression in ATDC5 transiently expressing human asporin; assay type: cell-based, mouse; conditions: transient expression
Procedure: ATDC5 cells were inoculated to a 12-well plate at 0.5×10^5 cells/well, and cultured in a medium 1-2 (DMEM/F12 medium containing 5% FBS, ITS (Sigma), penicillin (100 U/ml) and streptomycin (100 μg/ml)). 24 hours later, pcDNA3.1-ASP13 or pcDNA3.1-ASP14 were introduced using FuGENE-6 (Roche), and the cells were cultured for 24 hours. Next, the medium was exchanged with a medium 1-2 containing 0.2% FBS, and the cells were cultured for 12 hours, after which TGF-β1 (10 ng/ml) was added, and the cells were further cultured for 18 hours, after which total RNA extraction, purification, cDNA synthesis, and real-time PCR were performed in the same manner as Example 18. As a result, the elevation of the TGF-β1-stimulated expression levels of the aggrecan and type II collagen genes was suppressed in the ATDC5 cells allowed to transiently express human asporin D13 or D14 compared to mock (FIG. 14).
First, the expression level of the aggrecan gene elevated by TGF-β1 stimulation in mock is written as (AM), and the expression level of the type II collagen gene at the same time is written as (CM). Next, the TGF-β1-stimulated aggrecan gene expression level suppressed by the forced expression of asporin D13 is written as (A13), and the type II collagen gene expression level at the same time is written as (C13). […] Thus, the suppression rate of the TGF-β1-stimulated aggrecan gene expression in the asporin D13 expressing line can be expressed as (A13)/(AM), and the suppression rate of the type II collagen gene expression as (C13)/(CM). Likewise, the suppression rate of the TGF-β1-stimulated aggrecan gene expression in the asporin D14 expressing line can be expressed as (A14)/(AM), and the suppression rate of the type II collagen gene expression as (C14)/(CM). Furthermore, by making a correction by dividing these values by the human asporin mRNA content obtained with TGF-β1 stimulation, the suppression rate of the aggrecan and type II collagen gene expression per human asporin mRNA content were calculated. […]

binding to type I collagen (type I collagen): bound
binding to type II collagen (type II collagen): bound
binding to TGF-β1 (pull-down) (TGF-β1): bound to TGF-β1 in vitro
B2: S-tagged human asporin D14: mature S-tagged human asporin D14 synthesized cell-free from pET29b-ASP14, lysines biotinylated (protein)
chain: DMEDTDDDDDDDDDDDDDDEDNSLFPTREPRSHFFPFDLFPMCPFGCQCYSRVVHCSDLGLTSVPTNIPFDTRMLDLQNNKIKEIKENDFKGLTSLYGLILNNNKLTKIHPKAFLTTKKLRRLYLSHNQLSEIPLNLPKSLAELRIHENKVKKIQKDTFKGMNALHVLEMSANPLDNNGIEPGAFEGVTVFHIRIAEAKLTSVPKGLPPTLLELHLDYNKISTVELEDFKRYKELQRLGLGNNKITDIENGSLANIPRVREIHLENNKLKKIPSGLPELKYLQIIFLHSNSIARVGVNDFCPTVPKMKKSLYSAISLFNNPVKYWEMQPATFRCVLSRMSVQLGNFGM
modifications: left off: small tags and cut ends
notes: mature S-tagged human asporin D14 synthesized cell-free from pET29b-ASP14, lysines biotinylated

binding to type I collagen (type I collagen): did not bind
binding to type II collagen (type II collagen): did not bind
B5: biglycan: SLRP family proteoglycan used as the negative control for collagen binding (protein, UniProt P21810 38-368, looked up)
Biglycan: DEEASGADTSGVLDPDSVTPTYSAMCPFGCHCHLRVVQCSDLGLKSVPKEISPDTTLLDLQNNDISELRKDDFKGLQHLYALVLVNNKISKIHEKAFSPLRKLQKLYISKNHLVEIPPNLPSSLVELRIHDNRIRKVPKGVFSGLRNMNCIEMGGNPLENSGFEPGAFDGLKLNYLRISEAKLTGIPKDLPETLNELHLDHNKIQAIELEDLLRYSKLYRLGLGHNQIRMIENGSLSFLPTLRELHLDNNKLARVPSGLPDLKLLQVVYLHSNNITKVGVNDFCPMGFGVKRAYYNGISLFNNPVPYWEVQPATFRCVTDRLAIQFGNYKK

More lines, now with the values behind:

Molecule: bFGF: growth factor added to ATDC5 cells and coated on microplate [reference compound]
growth of ATDC5 cells (MTT, OD550) (ATDC5 cells): suppressed the growth of ATDC5 cells concentration-dependently

B1: S-tagged human asporin D13: mature S-tagged human asporin D13 synthesized cell-free from pET29b-ASP13, lysines biotinylated (protein)
chain: DMEDTDDDDDDDDDDDDDEDNSLFPTREPRSHFFPFDLFPMCPFGCQCYSRVVHCSDLGLTSVPTNIPFDTRMLDLQNNKIKEIKENDFKGLTSLYGLILNNNKLTKIHPKAFLTTKKLRRLYLSHNQLSEIPLNLPKSLAELRIHENKVKKIQKDTFKGMNALHVLEMSANPLDNNGIEPGAFEGVTVFHIRIAEAKLTSVPKGLPPTLLELHLDYNKISTVELEDFKRYKELQRLGLGNNKITDIENGSLANIPRVREIHLENNKLKKIPSGLPELKYLQIIFLHSNSIARVGVNDFCPTVPKMKKSLYSAISLFNNPVKYWEMQPATFRCVLSRMSVQLGNFGM
modifications: left off: small tags and cut ends
notes: mature S-tagged human asporin D13 synthesized cell-free from pET29b-ASP13, lysines biotinylated
binding to type I collagen (type I collagen): bound
binding to type II collagen (type II collagen): bound
binding to TGF-β1 (pull-down) (TGF-β1): bound to TGF-β1 in vitro

B3: D16: asporin having D-repeat number of 16, transiently expressed (protein)
chain: AKPFFSPSHIALKNMMLKDMEDTDDDDDDDDDDDDDDEDNSLFPTREPRSHFFPFDLFPMCPFGCQCYSRVVHCSDLGLTSVPTNIPFDTRMLDLQNNKIKEIKENDFKGLTSLYGLILNNNKLTKIHPKAFLTTKKLRRLYLSHNQLSEIPLNLPKSLAELRIHENKVKKIQKDTFKGMNALHVLEMSANPLDNNGIEPGAFEGVTVFHIRIAEAKLTSVPKGLPPTLLELHLDYNKISTVELEDFKRYKELQRLGLGNNKITDIENGSLANIPRVREIHLENNKLKKIPSGLPELKYLQIIFLHSNSIARVGVNDFCPTVPKMKKSLYSAISLFNNPVKYWEMQPATFRCVLSRMSVQLGNFGM
suppressive action on the TGF-β1-stimulated expression of COL2A1 compared with D14 [1]: significantly weaker than that of D14

B4: D17: asporin having D-repeat number of 17, transiently expressed (protein)
chain: B3 chain
suppressive action on the TGF-β1-stimulated expression of COL2A1 compared with D14 [1]: significantly weaker than that of D14
